# Assay results reported in article PMC11652653, “SON-1010: an albumin-binding IL-12 fusion protein that improves cytokine half-life, targets tumors, and enhances therapeutic efficacy” (Frontiers in Immunology, 2024).
# B1: secreted protein acidic and rich in cysteine (natural protein, UniProt P09486 18-303, looked up)
# chain: APQQEALPDETEVVEETVAEVTEVSVGANPVQVEVGEFDDGAEETEEEVVAENPCQNHHCKHGKVCELDENNTPMCVCQDPTSCPAPIGEFEKVCSNDNKTFDSSCHFFATKCTLEGTKKGHKLHLDYIGPCKYIPPCLDSELTEFPLRMRDWLKNVLVTLYERDEDNNLLTEKQKLRVKKIHENEKRLEAGDHPVELLARDFEKNYNMYIFPVHWQFGQLDQHPIDGYLSHTELAPLRAPLIPMEHCTTRFFETCDLDNDKYIALDEWAGCFGIKQKDIDKDLVI
# notes: SPARC (secreted protein acidic and rich in cysteine); also called SPARC
# Target: T1, human serum albumin (human, UniProt P02768 25-609)
# T1 construct: human serum albumin (HSA); also called HSA; rHSA
# Test: SPR; HSA bound to the chip, SON-1010 added, then SPARC (ternary complex); pH 6.0
# Settings: both partners purified
binder,measurement,value
B1,Kd,10 nM
